From US6875851

Tests used:
[1] = target: DPP IV from P. gingivalis (Porphyromonas gingivalis); assay: cell-based or functional assay

Substance	Residual activity of DPP IV, % (inhibitor at 10 mM) [1]	Cleavage site (Peptide 23)
Ala-Gly-Pro (peptide)	1%	
Ala-Pro (peptide)	30%	
DPP IV from P. gingivalis		H-Ser-Pro-↑-Tyr-Ser-Ser-Asp-Thr-Thr
Val-Pro (peptide)	0%	
